Source: the supplement of paper PMC11246515
± gives the standard deviation of the averaged measurements.

Test: total protein half-life in vivo (active degradation + dilution); higher = more stable protein
[1] = E. coli NCM3722 delta-clpP delta-lon delta-hslV, growth: N-lim chemostat, doubling time 6 h
[2] = E. coli NCM3722 delta-clpP, growth: N-lim chemostat, doubling time 6 h
[3] = E. coli NCM3722 delta-hslV, growth: N-lim chemostat, doubling time 6 h
[4] = E. coli NCM3722 delta-lon, growth: N-lim chemostat, doubling time 6 h
[5] = E. coli NCM3722 delta-smpB, growth: N-lim chemostat, doubling time 6 h
[6] = wild type E. coli NCM3722, growth: C-lim chemostat, doubling time 3 h
[7] = wild type E. coli NCM3722, growth: C-lim chemostat, doubling time 6 h
[8] = wild type E. coli NCM3722, growth: C-lim chemostat, doubling time 12 h
[9] = wild type E. coli NCM3722, growth: N-lim chemostat, doubling time 6 h
[10] = wild type E. coli NCM3722, growth: N-lim chemostat, doubling time 12 h
[11] = wild type E. coli NCM3722, growth: P-lim chemostat, doubling time 6 h
[12] = wild type E. coli NCM3722, growth: P-lim chemostat, doubling time 12 h

Sequence | total protein half-life in vivo [1] [h] | total protein half-life in vivo [2] [h] | total protein half-life in vivo [3] [h] | total protein half-life in vivo [4] [h] | total protein half-life in vivo [5] [h] | total protein half-life in vivo [6] [h] | total protein half-life in vivo [7] [h] | total protein half-life in vivo [8] [h] | total protein half-life in vivo [9] [h] | total protein half-life in vivo [10] [h] | total protein half-life in vivo [11] [h] | total protein half-life in vivo [12] [h]
MSAVLTAEQALKLVGEMFVYHMPFNRALGMELERYEKEFAQLAFKNQPMMVGNWAQSILHGGVIASALDVAAGLVCVGSTLTRHETISEDELRQRLSRMGTIDLRVDYLRPGRGERFTATSSLLRAGNKVAVARVELHNEEQLYIASATATYMVG [P0ADP2] | 5.02 ± 0.33 | 2.3 ± 0.16 | 2.36 ± 0.08 | 3.45 ± 0.78 | 2.22 ± 0.052 | 2.82 ± 0.14 | 5.73 ± 0.62 | 7.1 ± 2.8 | 2.54 ± 0.22 | 4.13 ± 0.42 | 5 ± 0.1 | 12.5 ± 1
MSDDVALPLEFTDAAANKVKSLIADEDNPNLKLRVYITGGGCSGFQYGFTFDDQVNEGDMTIEKQGVGLVVDPMSLQYLVGGSVDYTEGLEGSRFIVTNPNAKSTCGCGSSFSI [P0ACC3] | 5.22 ± 1.4 |  | 2.03 ± 0.4 | 3.62 ± 0.25 | 1.74 ± 0.059 | 1.62 ± 0.23 | 2.89 ± 0.6 | 3.62 ± 0.69 | 1.71 ± 0.19 | 2.43 ± 0.26 | 2.4 ± 0.14 | 4.84 ± 0.42
MSDISKASLPKAIFLMGPTASGKTALAIELRKILPVELISVDSALIYKGMDIGTAKPNAEELLAAPHRLLDIRDPSQAYSAADFRRDALAEMADITAAGRIPLLVGGTMLYFKALLEGLSPLPSADPEVRARIEQQAAEQGWESLHRQLQEVDPVAAARIHPNDPQRLSRALEVFFISGKTLTELTQTSGDALPYQVHQFAIAPASRELLHQRIEQRFHQMLASGFEAEVRALFARGDLHTDLPSIRCVGYRQMWSYLEGEISYDEMVYRGVCATRQLAKRQITWLRGWEGVHWLDSEKPEQARDEVLQVVGAIAG |  | 4.338 ± 0.019 | 5.26 ± 1.1 | 5.42 ± 0.37 | 4.279 ± 0.03 | 3.18 ± 0.12 | 5.47 ± 0.15 | 8.97 ± 0.41 | 4.32 ± 0.4 | 6.84 ± 1.1 | 5.67 ± 0.43 | 11.71 ± 0.1
MSDKFGEGRDPYLYPGLDIMRNRLNIRQQQRLEQAAYEMTALRAATIELGPLVRGLPHLRTIHRQLYQDIFDWAGQLREVDIYQGDTPFCHFAYIEKEGNALMQDLEEEGYLVGLEKAKFVERLAHYYCEINVLHPFRVGSGLAQRIFFEQLAIHAGYQLSWQGIEKEAWNQANQSGAMGDLTALQMIFSKVVSEAGESE | 4.96 ± 0.27 | 4.09 ± 0.47 | 4.81 ± 0.64 | 4.4 ± 0.57 | 4.69 ± 0.42 |  | 6.07 ± 0.18 | 10.2 ± 1.9 | 4.39 ± 0.17 | 7.12 ± 0.43 | 6.02 ± 0.4 | 7.72 ± 3.9
MSDLLCSAKLGAMTLALLLSATSLSALASVTPDRTRLIFNESDKSISVTLRNNDPKLPYLAQSWIEDEKGNKITSPLTVLPPVQRIDSMMNGQVKVQGMPDINKLPADRESMFYFNVREIPPKSNKPNTLQIALQTRIKLFWRPKALEKVSMKSPWQHKVTLTRSGQAFTVNNPTPYYVIISNASAQKNGNPAAGFSPLVIEPKTTVPLNVKMDSVPVLTYVNDFGARMPLFFQCNGNSCQVDEEQSRKG |  |  |  |  |  |  |  |  |  |  | 4.16 | 
MSDMNNPADDNNGAMDDLWAEALSEQKSTSSKSAAETVFQQFGGGDVSGTLQDIDLIMDIPVKLTVELGRTRMTIKELLRLTQGSVVALDGLAGEPLDILINGYLIAQGEVVVVADKYGVRITDIITPSERMRRLSR | 5.45 ± 0.45 |  |  |  | > 8 | 2.75 ± 0.5 | 4.23 ± 0.055 | 7.08 ± 1.4 |  |  |  | 
MSDNAQLTGLCDRFRGFYPVVIDVETAGFNAKTDALLEIAAITLKMDEQGWLMPDTTLHFHVEPFVGANLQPEALAFNGIDPNDPDRGAVSEYEALHEIFKVVRKGIKASGCNRAIMVAHNANFDHSFMMAAAERASLKRNPFHPFATFDTAALAGLALGQTVLSKACQTAGMDFDSTQAHSALYDTERTAVLFCEIVNRWKRLGGWPLSAAEEV | 5.4962 ± 0.0014 | 5.43 ± 0.51 | 5.13 | 6.1 |  | 2.54 | 5.95 ± 0.48 |  | 5.89 | 8.59 | 5.17 | 12 ± 0.56
MSDNDTIVAQATPPGRGGVGILRISGFKAREVAETVLGKLPKPRYADYLPFKDADGSVLDQGIALWFPGPNSFTGEDVLELQGHGGPVILDLLLKRILTIPGLRIARPGEFSERAFLNDKLDLAQAEAIADLIDASSEQAARSALNSLQGAFSARVNHLVEALTHLRIYVEAAIDFPDEEIDFLSDGKIEAQLNDVIADLDAVRAEARQGSLLREGMKVVIAGRPNAGKSSLLNALAGREAAIVTDIAGTTRDVLREHIHIDGMPLHIIDTAGLREASDEVERIGIERAWQEIEQADRVLFMVDGTTTDAVDPAEIWPEFIARLPAKLPITVVRNKADITGETLGMSEVNGHALIRLSARTGEGVDVLRNHLKQSMGFDTNMEGGFLARRRHLQALEQAAEHLQQGKAQLLGAWAGELLAEELRLAQQNLSEITGEFTSDDLLGRIFSSFCIGK | 5.13 ± 0.69 | 5.57 ± 0.62 | 4.91 ± 0.24 | 5.72 ± 0.4 | 4.68 ± 0.25 | 3.43 ± 0.63 | 5.46 ± 0.16 | 10.2 ± 5 | 5.14 ± 0.12 | 8.32 ± 0.99 | 5.69 ± 0.32 | 11.7 ± 0.24
MSDNLPWKTWTPDDLAPPQAEFVPIVEPEETIIEEAEPSLEQQLAQLQMQAHEQGYQAGIAEGRQQGHKQGYQEGLAQGLEQGLAEAKSQQAPIHARMQQLVSEFQTTLDALDSVIASRLMQMALEAARQVIGQTPTVDNSALIKQIQQLLQQEPLFSGKPQLRVHPDDLQRVDDMLGATLSLHGWRLRGDPTLHPGGCKVSADEGDLDASVATRWQELCRLAAPGVV |  |  |  |  |  | 2.19 ± 0.17 | 3.64 ± 0.27 | 5.33 ± 0.28 |  |  |  | 
